B1: FVIIa variant Q286N (enzyme)
chain: ANAFLEELRPGSLERECKEEQCSFEEAREIFKDAERTKLFWISYSDGDQCASSPCQNGGSCKDQLQSYICFCLPAFEGRNCETHKDDQLICVNENGGCEQYCSDHTGTKRSCRCHEGYSLLADGVSCTPTVEYPCGKIPILEKRNASKPQGRIVGGKVCPKGECPWQVLLLVNGAQLCGGTLINTIWVVSAAHCFDKIKNWRNLIAVLGEHDLSEHDGDEQSRRVAQVIIPSTYVPGTTNHDIALLRLHQPVVLTDHVVPLCLPERTFSERTLAFVRFSLVSGWGNLLDRGATALELMVLNVPRLMTQDCLQQSRKVGDSPNITEYMFCAGYSDGSKDSCKGDSGGPHATHYRGTWYLTGIVSWGQGCATVGHFGVYTRVSQYIEWLQKLMRSEPRPGVLLRAPFP
B2: FVIIa variant Q286A (enzyme)
chain: B1 chain with N286A
B3: FVIIa variant Q286K (enzyme)
chain: B1 chain with N286K
B4: FVIIa variant Q286S (enzyme)
chain: B1 chain with N286S
B5: FVIIa variant Q286V (enzyme)
chain: B1 chain with N286V
B6: FVIIa variant Q286T (enzyme)
chain: B1 chain with N286T
B7: FVIIa variant H216S (enzyme)
chain: B1 chain with H216S, N286Q
B8: FVIIa variant H257S (enzyme)
chain: B1 chain with H257S, N286Q
B9: FVIIa variant H216K (enzyme)
chain: B1 chain with H216K, N286Q
B10: FVIIa variant H257A (enzyme)
chain: B1 chain with H257A, N286Q
B11: FVIIa variant Q286E (enzyme)
chain: B1 chain with N286E
B12: FVIIa variant H216A (enzyme)
chain: B1 chain with H216A, N286Q
B13: FVIIa variant H216R (enzyme)
chain: B1 chain with H216R, N286Q
B14: FVIIa variant K161S (enzyme)
chain: B1 chain with K161S, N286Q
B15: FVIIa variant S222K (enzyme)
chain: B1 chain with S222K, N286Q
B16: FVIIa variant Q286D (enzyme)
chain: B1 chain with N286D
B17: A175S-FVIIa (enzyme)
chain: B1 chain with A175S, N286Q
B18: H257A/M298Q-FVIIa (enzyme)
chain: B1 chain with H257A, N286Q, M298Q
B19: T239I-FVIIa (enzyme)
chain: B1 chain with T239I, N286Q
B20: T239V-FVIIa (enzyme)
chain: B1 chain with T239V, N286Q
B21: T239I/M298Q/H373F-FVIIa (enzyme)
chain: B1 chain with T239I, N286Q, M298Q, H373F
B22: T239I/Q286R/M298Q/Q366N-FVIIa (enzyme)
chain: B1 chain with T239I, N286R, M298Q, Q366N
B23: Q286R/S222A-FVIIa (enzyme)
chain: B1 chain with S222A, N286R
B24: Q286R/S222A/H257A-FVIIa (enzyme)
chain: B1 chain with S222A, H257A, N286R
B25: S222A/H257A/Q286R/M298Q-FVIIa (enzyme)
chain: B1 chain with S222A, H257A, N286R, M298Q

Residue numbers refer to the chain shown, from its start. Names may count otherwise. “And” between values parts separate entries of the source, which are not always exact repeats. Equal values may be shown once.

For one test, the target named is Factor X (FX) (Homo sapiens (Human)) (UniProt P00742).
Factor X (FX) (Homo sapiens (Human)), sequence (P00742 41-488 limits assumed): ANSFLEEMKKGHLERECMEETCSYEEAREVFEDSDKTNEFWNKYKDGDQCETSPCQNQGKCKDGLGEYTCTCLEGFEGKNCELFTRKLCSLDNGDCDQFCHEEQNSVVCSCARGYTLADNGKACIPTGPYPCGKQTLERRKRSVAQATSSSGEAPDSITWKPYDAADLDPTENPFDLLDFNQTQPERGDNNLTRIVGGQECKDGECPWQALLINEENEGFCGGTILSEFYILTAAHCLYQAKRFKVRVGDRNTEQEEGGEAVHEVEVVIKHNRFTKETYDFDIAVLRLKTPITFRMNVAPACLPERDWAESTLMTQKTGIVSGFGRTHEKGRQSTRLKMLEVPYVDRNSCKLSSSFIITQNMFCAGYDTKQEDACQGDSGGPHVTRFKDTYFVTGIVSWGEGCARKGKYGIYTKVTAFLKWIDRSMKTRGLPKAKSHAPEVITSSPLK
Regarding FVIIa variant S222A (enzyme), the kcat/KM, TF-Dependent Indirect Assay amounted to 5.73e+07 M⁻¹ s⁻¹. “FVIIa variant A122N/G124S/A175S (enzyme)”: the kcat/KM, TF-Dependent Indirect Assay amounted to 2.79e+07 M⁻¹ s⁻¹. Turning to FVIIa variant S52A/S60A (enzyme), the kcat/KM, TF-Dependent Indirect Assay worked out at 1.05e+08 M⁻¹ s⁻¹. Still for that read-out and setting: next, FVIIa variant M298Q (enzyme): 1.4e+08 M⁻¹ s⁻¹; FVIIa variant Q286R (enzyme): 1.11e+08 M⁻¹ s⁻¹.

Turning to “FVIIa variant T128N/P129A/A175S (enzyme)”, the kcat/KM, TF-Dependent Indirect Assay amounted to 2.98e+07 M⁻¹ s⁻¹. As to FVIIa variant T128N/P129A (enzyme), the kcat/KM, TF-Dependent Indirect Assay amounted to 5.96e+07 M⁻¹ s⁻¹. Still for that read-out and setting: to “FVIIa variant Q286R/M298Q/Gla Swap FIX (enzyme)” belongs 2.64e+08 M⁻¹ s⁻¹; to “FVIIa variant S119N/L121S/A175S (enzyme)”, 2.92e+07 M⁻¹ s⁻¹. The same measure, in the same setting: next, FVIIa variant K109N (enzyme): 5.97e+07 M⁻¹ s⁻¹; FVIIa variant K109N/A175S (enzyme): 3.67e+07 M⁻¹ s⁻¹; B1: 4.88e+07 M⁻¹ s⁻¹. Turning to B2, the kcat/KM, TF-Dependent Indirect Assay came out at 8.55e+07 M⁻¹ s⁻¹. For the molecule B3, the kcat/KM, TF-Dependent Indirect Assay is 5.44e+07 M⁻¹ s⁻¹. Regarding B4, the kcat/KM, TF-Dependent Indirect Assay came out at 4.64e+07 M⁻¹ s⁻¹.

For B5, the kcat/KM, TF-Dependent Indirect Assay came to 1.65e+07 M⁻¹ s⁻¹. As to B6, the kcat/KM, TF-Dependent Indirect Assay was 2.44e+07 M⁻¹ s⁻¹. As to B7, the kcat/KM, TF-Dependent Indirect Assay was determined as 4.74e+07 M⁻¹ s⁻¹. Regarding B8, the kcat/KM, TF-Dependent Indirect Assay came out at 5.9e+07 M⁻¹ s⁻¹. Consider B9, for which the kcat/KM, TF-Dependent Indirect Assay amounted to 6.51e+07 M⁻¹ s⁻¹. For B10, the kcat/KM, TF-Dependent Indirect Assay worked out at 3.9e+07 M⁻¹ s⁻¹. Still for that read-out and setting: to B11 belongs 1.14e+07 M⁻¹ s⁻¹; to B12, 5.98e+07 M⁻¹ s⁻¹; to B13, 9.44e+07 M⁻¹ s⁻¹. Regarding B14, the kcat/KM, TF-Dependent Indirect Assay was found to be 5.99e+07 M⁻¹ s⁻¹. On to B15, for which the kcat/KM, TF-Dependent Indirect Assay came out at 8.02e+07 M⁻¹ s⁻¹. Same read-out and setting: to B16 belongs 6.04e+06 M⁻¹ s⁻¹.

The target in the next test is Factor X (Homo sapiens (Human)) (UniProt P00742).
As to M298Q-FVIIa (enzyme), the kcat/KM (M^-1s^-1), TF-dependent assay is 6.76e+07 M⁻¹ s⁻¹ and 7.46e+07 M⁻¹ s⁻¹; the kcat/KM, TF-independent assay came out at 69.9 M⁻¹ s⁻¹. On to “T128N/P129A/Q286R/M298Q/Q366N/H373F-FVIIa (enzyme)”, for which the kcat/KM, TF-dependent assay is 1.33e+08 M⁻¹ s⁻¹. Turning to “{Gla swap FIX/M19K/E40L/K43I/Q44S}/Q286R/M298Q-FVIIa (enzyme)”, the kcat/KM (M^-1s^-1), TF-dependent assay came to 1.21e+08 M⁻¹ s⁻¹.

Take “Gla swap FIX/S222A/H257S/Q286R-FVIIa (enzyme)”: the kcat/KM, TF-independent assay was 20.5 M⁻¹ s⁻¹. Consider WT (NovoSeven-RT®) FVIIa (enzyme), for which the kcat/KM, TF-independent assay was 12.4 M⁻¹ s⁻¹. As to “Gla swap FIX/S222A/T239I/Q286R-FVIIa (enzyme)”, the kcat/KM, TF-independent assay was found to be 20.3 M⁻¹ s⁻¹. Consider WT (NovoSeven®) (enzyme), for which the kcat/KM (M^-1s^-1), TF-dependent assay turned out to be 3.98e+07 M⁻¹ s⁻¹. “T128N/P129A/T239V/Q286R/M298Q/H373F-FVIIa (enzyme)”: the kcat/KM (M^-1s^-1), TF-dependent assay is 2.36e+08 M⁻¹ s⁻¹ and the kcat/KM, TF-independent assay was 290 M⁻¹ s⁻¹. In the same order, the values of T128N/P129A/M298Q/H373F-FVIIa (enzyme) are 6.07e+07 M⁻¹ s⁻¹ and 91.6 M⁻¹ s⁻¹.

Turning to “{Gla swap FIX/K43I}/T128N/P129A/Q286R/M298Q-FVIIa (enzyme)”, the kcat/KM (M^-1s^-1), TF-dependent assay came to 2.71e+08 M⁻¹ s⁻¹ and the kcat/KM, TF-independent assay is 389 M⁻¹ s⁻¹.

On to WT (NovoSeven-RT®) (enzyme), for which the kcat/KM (M^-1s^-1), TF-dependent assay came out at 3.48e+07 M⁻¹ s⁻¹.

Regarding “T128N/P129A/T239I/Q286R/M298Q-FVIIa (enzyme)”, the kcat/KM (M^-1s^-1), TF-dependent assay was 8.17e+07 M⁻¹ s⁻¹ and the kcat/KM, TF-independent assay stood at 77.8 M⁻¹ s⁻¹. For “T128N/P129A/S222A/T239V/H257A/Q286R/M298Q-FVIIa (enzyme)” the same measures were 1.21e+08 M⁻¹ s⁻¹ and 179 M⁻¹ s⁻¹. With “WT (NovoSeven®) recombinant human FVIIa (enzyme)”, the kcat/KM, TF-independent assay stood at 9.8 M⁻¹ s⁻¹. For the molecule “T128N/P129A/Q286R/M298Q/Q366N-FVIIa (enzyme)”, the kcat/KM (M^-1s^-1), TF-dependent assay came to 1.42e+08 M⁻¹ s⁻¹ and the kcat/KM, TF-independent assay is 64.6 M⁻¹ s⁻¹. For “T128N/P129A/T239I/Q286R/M298Q/H373F-FVIIa (enzyme)” the same measures were 1.3e+08 M⁻¹ s⁻¹ and 113 M⁻¹ s⁻¹. Turning to “Gla swap FIX/S52A/S60A/Q286R/M298Q-FVIIa (enzyme)”, the kcat/KM (M^-1s^-1), TF-dependent assay came out at 1.8e+08 M⁻¹ s⁻¹ and the kcat/KM, TF-independent assay amounted to 989 M⁻¹ s⁻¹.

For “{Gla swap FIX/K43I}/Q286R/M298Q/Q366N-FVIIa (enzyme)”, the kcat/KM (M^-1s^-1), TF-dependent assay is 1.69e+08 M⁻¹ s⁻¹ and the kcat/KM, TF-independent assay is 84.9 M⁻¹ s⁻¹. T128N/P129A/M298Q-FVIIa (enzyme): the kcat/KM (M^-1s^-1), TF-dependent assay amounted to 6.29e+07 M⁻¹ s⁻¹ and the kcat/KM, TF-independent assay was 90.8 M⁻¹ s⁻¹. As to “T128N/P129A/T239V/Q286R/M298Q-FVIIa (enzyme)”, the kcat/KM (M^-1s^-1), TF-dependent assay turned out to be 1.04e+08 M⁻¹ s⁻¹ and the kcat/KM, TF-independent assay is 230 M⁻¹ s⁻¹. As to “{Gla swap FIX/K43I}/T128N/P129A/Q286R/M298Q/Q366N-FVIIa (enzyme)”, the kcat/KM (M^-1s^-1), TF-dependent assay was found to be 2.52e+08 M⁻¹ s⁻¹ and the kcat/KM, TF-independent assay came to 218 M⁻¹ s⁻¹. On to T239V/Q286R-FVIIa (enzyme), for which the kcat/KM (M^-1s^-1), TF-dependent assay is 8.84e+07 M⁻¹ s⁻¹ and the kcat/KM, TF-independent assay was 11.8 M⁻¹ s⁻¹. As for B17, the kcat/KM (M^-1s^-1), TF-dependent assay is 2.11e+07 M⁻¹ s⁻¹.

For the molecule B18, the kcat/KM (M^-1s^-1), TF-dependent assay came out at 1.67e+07 M⁻¹ s⁻¹. Regarding B19, the kcat/KM (M^-1s^-1), TF-dependent assay turned out to be 2.62e+07 M⁻¹ s⁻¹. B20: the kcat/KM (M^-1s^-1), TF-dependent assay was found to be 4.64e+07 M⁻¹ s⁻¹.

Take B21: the kcat/KM, TF-dependent assay was found to be 3.47e+07 M⁻¹ s⁻¹. Same read-out and setting: next, B22: 7.4e+07 M⁻¹ s⁻¹.

As to B23, the kcat/KM (M^-1s^-1), TF-dependent assay turned out to be 1.11e+08 M⁻¹ s⁻¹. On to B24, for which the kcat/KM (M^-1s^-1), TF-dependent assay worked out at 6.98e+07 M⁻¹ s⁻¹ and the kcat/KM, TF-independent assay was 21.3 M⁻¹ s⁻¹.

Take B25: the kcat/KM (M^-1s^-1), TF-dependent assay amounted to 1.65e+08 M⁻¹ s⁻¹ and the kcat/KM, TF-independent assay amounted to 345 M⁻¹ s⁻¹.

For the origin of these results see patent publication US20090291890A1 (published 2009).
